In patent publication US7235648B1, “Yeast cells engineered to produce pheromone system protein surrogates, and uses therefor” (Cadus Technologies, Inc., priority 1993, dated 2007):
Ends that are not written are not given here.

T1: STE2 receptor (Saccharomyces cerevisiae, UniProt D6VTK4)
T1 construct: endogenous in cells; host or cells: S. cerevisiae MATa CY588 / CY1455
T1 sequence (D6VTK4 1-431): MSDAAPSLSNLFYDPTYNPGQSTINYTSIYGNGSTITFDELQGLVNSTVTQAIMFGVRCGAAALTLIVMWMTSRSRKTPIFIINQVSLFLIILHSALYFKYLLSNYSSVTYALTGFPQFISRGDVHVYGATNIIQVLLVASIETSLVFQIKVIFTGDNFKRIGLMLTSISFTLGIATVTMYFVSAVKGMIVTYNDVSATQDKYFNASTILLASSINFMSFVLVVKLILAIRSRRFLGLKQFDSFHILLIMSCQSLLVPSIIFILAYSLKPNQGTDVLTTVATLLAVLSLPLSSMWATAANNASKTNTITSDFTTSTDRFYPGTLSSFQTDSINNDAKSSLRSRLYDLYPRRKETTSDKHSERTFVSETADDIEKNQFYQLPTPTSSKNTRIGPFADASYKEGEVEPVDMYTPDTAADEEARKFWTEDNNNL

T2: yeast Gβγ (Saccharomyces cerevisiae, UniProt P18851+P18852)
T2 construct: Endogenous Gβγ subunits will be provided by the yeast STE4 and STE18 loci; endogenous in cells; host or cells: S. cerevisiae gpa1 tester strains
T2 sequence (P18851 1-423): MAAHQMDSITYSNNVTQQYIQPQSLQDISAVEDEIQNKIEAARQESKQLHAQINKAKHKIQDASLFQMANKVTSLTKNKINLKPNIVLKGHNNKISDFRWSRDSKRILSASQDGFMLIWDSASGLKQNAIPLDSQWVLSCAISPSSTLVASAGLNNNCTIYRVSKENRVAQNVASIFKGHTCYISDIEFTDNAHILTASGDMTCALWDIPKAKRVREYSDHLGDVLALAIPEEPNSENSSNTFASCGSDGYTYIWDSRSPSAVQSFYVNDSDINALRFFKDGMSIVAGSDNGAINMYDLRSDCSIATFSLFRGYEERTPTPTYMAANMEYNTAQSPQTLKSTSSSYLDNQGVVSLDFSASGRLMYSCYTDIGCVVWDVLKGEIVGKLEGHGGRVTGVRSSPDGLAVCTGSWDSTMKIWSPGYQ
T2 sequence (P18852 1-107 limits assumed): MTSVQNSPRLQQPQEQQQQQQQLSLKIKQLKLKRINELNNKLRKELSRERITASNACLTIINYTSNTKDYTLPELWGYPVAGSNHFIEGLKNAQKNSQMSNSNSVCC


Each molecule was assayed against T1, STE2 receptor (assay: Autocrine MATa yeast (CY588/CY1455) growth on histidine-deficient medium plus aminotriazole, fus1-HIS3 readout). Conditions: CY588 transformed with Cadus 1219; range of aminotriazole concentrations.
Type: cell-based
Text: A MATa strain designed for the expression of peptides in the context of MFα1 (i.e., using the MFα1 expression vector. Cadus 1215) has been constructed. The genotype of this strain, which we designate CY588, is MATa bar1 far1-1 fus1-HIS3 ste14::TRP1 ura3 trp1 leu2 his3. The bar1 mutation eliminates the strain's ability to produce a protease that degrades α-factor and that may degrade some peptides encoded by the cloned oligonucleotides; the far1 mutation abrogates the arrest of growth which normally follows stimulation of the pheromone response pathway; an integrated FUS1-HIS3 hybrid gene provides a selectable signal of activation of the pheromone response pathway; and, finally, the ste14 mutation lowers background of the FUS1-HIS3 readout. The enzymes responsible for processing of the MFα1 precursor in MATα cells are also expressed in MATa cells (Sprague and Thorner, in The Molecular and Cellular Biology of the Yeast Saccharomyces: Gene Expression, 1992. Cold Spring Harbor Press), therefore, CY588 cells should be able to secrete peptides encoded by oligonucleotides expressed from plasmid Cadus 1215.
Experiments were performed to test: 1. the ability of Cadus 1215 to function as a vector for the expression of peptides encoded by synthetic oligonucleotides; 2. the suitability of the oligonucleotides, as designed, to direct the secretion of peptides through the α-factor secretory pathway; 3. the capacity of CY588 to secrete those peptides; and 4. the ability of CY588 to respond to those peptides that stimulate the pheromone response pathway by growing on selective media. These experi-ments were performed using an oligonucleotide which encodes the 13 amino acid α-factor; i.e., the degenerate sequence (NNN)n in the oligonucleotide cloned into Cadus 1215 (see above) was specified (n=13) to encode this pheromone. CY588 was transformed with the resulting plasmid (Cadus 1219), and transformants selected on uracil-deficient medium were transferred to histidine-deficient medium supplemented with a range of concentrations of aminotriazole (an inhibitor of the HIS3 gene product that serves to reduce background growth). […] CY588 is competent for the secretion of a peptide encoded by the (NNN)n sequence of the synthetic oligonucleotide cloned into and expressed from Cadus 1215; and 2. CY588 can, in an autocrine fashion, respond to a secreted peptide which stimulates its pheromone response pathway, in this case by α-factor binding to STE2. Additional experiments were performed to test the utility of autocrine yeast strains in identifying agonists of the Ste2 receptor from among members of two semi-random α-factor libraries, α-Mid-5 and MFα-8. α-Mid-5 Library
To identity peptide members of the α-Mid-5 library that could act as agonists on the STE2 receptor. CY1455, a high transforming version of CY588, was electroporated to enhance uptake of α-Mid-5 DNA. Transformants were selected on uracil-deficient (-Ura) synthetic complete medium and were transferred to histidine-deficient (-His) synthetic complete medium supplemented with 0.5 mM or 1 mM aminotriazole.
Yeast able to grow on -His+aminotriazole medium include (1) yeast which are dependent on the expression of an α-factor variant agonist and (2) yeast which contain mutations that result in constitutive signalling along the pheromone pathway. […] Thus a recognizable formation (termed a “starburst”) results, consisting of a central colony, growing by virtue of autocrine stimulation of the pheromone pathway, surrounded by satellite colonies, growing by virtue of paracrine stimulation of the pheromone pathway by the agonist peptide as that ptpetide diffuses radially fromn the central, secreting colony.
In order to identify the peptide sequence responsible for this “starburst” phenomenon, yeast were transferred from the center of the “starburst” and streaks were made on -Ura medium to obtain single colonies. […]

Molecule	ability to grow on histidine-deficient media supplemented with aminotriazole (autocrine response, α-factor binding to STE2)
Trp His Trp Leu Gln Leu Lys Pro Gly Gln Pro Met Tyr (chain 1 WHWLQLKPGQPMY; chain 2 WHWLQLKPGQPMY) [α-factor, yeast tridecapeptide mating pheromone, reference compound]	ability to grow on histidine-deficient media supplemented with aminotriazole

Same assay, conditions: CY1455; -His medium with 0.5 mM or 1 mM aminotriazole; starburst phenotype

Molecule	agonist activity on the STE2 receptor, α-Mid-5 library
WHWLQLSAGQPMY [M4]	agonists
WHWLRLQPGQPMY [M9]	agonists
WHWLSLVPGQPMY [M7]	agonists
WHWLSLSPGQPMY [M1]	agonists
Trp His Tip Leu Thr Leu MetAla Gly Gin Pro Met Tyr (WHWLTLMAGQPMY) [M3]	agonists
WHWLSLDAGQPMY [M2]	agonists
WHWLSLYPGQPMY [M8]	agonists
WHWLRLQSGQPMY [M5]	agonists
WHWLRLSAGQPMY [M6]	agonists

What follows are molecules tested against T2, yeast Gβγ (assay: Coupling of Gα subunits and hybrids to yeast Gβγ: complementation of gpa1 growth arrest phenotype and fus1-HIS3 transcription). Conditions: not given.
Type: cell-based
Text: We have tested the hypothesis that there are switch region determinants involved in the association of Gα with Gβγ by constructing a series of hybrid Gα proteins encoding portions of GPA1 and GαS in different combinations (FIG. 11).
Preferably, levels of Gα and Gβγ subunits are balanced. For example, heterologous Gα subunits may be expressed from a low copy (CEN ARS) vector containing the endogenous yeast GPA1 promotor and the GPA1 3′ untranslated region. The minimum criterion, applied to a heterologous Gα subunit with respect to its ability to couple functionally to the yeast pheromone pathway, is that it complement a gpa1 genotype when expressed from the GPA1 promoter on low copy plasmids or from an integrated, single copy gene. In the work described in this application, all heterologous Gα subunits have been assayed in two biological systems.

functional complementation of the growth arrest phenotype of gpa1 strains	Molecule
functionally complement	GPA41-S: N-terminal 41 amino acids of GPA1 linked to Gαs sequence 42-394
do not	GPA41-Gαob: first 41 amino acids of GPA1 fused to Gαob (protein) MGCTVSTQTIGDESDPFLQNKRANDVIEQSLQLEKQRDKNEVKLLLLGAGESGKSTIVKQMKIIHEDGFSGEDVKQYKPVVYSNTIQSLAAIVRAMDTLGIEYGDKERKADAKMVCDVVSRMEDTEPFSAELLSAMMRLWGDSGIQECFNRSREYQLNDSAKYYLDSLDRIGAADYQPTEQDILRTRVKTTGIVETHFTFKNLHFRLFDVGGQRSERKKWIHCFEDVTAIIFCVALSGYDQVLHEDETTNRMHESLKLFDSICNNKWFTDTSIILFLNKKDIFEEKIKKSPLTICFPEYTGPSAFTEAVAYIQAQYESKNKSAHKEIYTHVTCATDTNNIQFVFDAVTDVIIAKNLRGCGLY
do not	GPA41-Gαoa: first 41 amino acids of GPA1 fused to Gαoa (protein) MGCTVSTQTIGDESDPFLQNKRANDVIEQSLQLEKQRDKNEVKLLLLGAGESGKSTIVKQMKIIHEDGFSGEDVKQYKPVVYSNTIQSLAAIVRAMDTLGIEYGDKERKADAKMVCDVVSRMEDTEPFSAELLSAMMRLWGDSGIQECFNRSREYQLNDSAKYYLDSLDRIGAADYQPTEQDILRTRVKTTGIVETHFTFKNLHFRLFDVGGQRSERKKWIHCFEDVTAIIFCVALSGYDQVLHEDETTNRMHESLMLFDSICNNKFFIDTSIILFLNKKDLFGEKIKKSPLTICFPEYTGPNTYEDAAAYIQAQFESKNRSPNKEIYCHMTCATDTNNIQVVFDAVTDIIIANNLRGCGLY
functionally complement	GPA141-Gαi3: first 41 amino acids of GPA1 fused to human Gαi3 (protein) MGCTVSTQTIGDESDPFLQNKRANDVIEQSLQLEKQRDKNEVKLLLLGAGESGKSTIVKQMKIIHE
functionally complement	GPA41-Gα16: first 41 amino acids of GPA1 fused to Gα16 (protein) MGCTVSTQTIGDESDPFLQNKRANDVIEQSLQLEKQRDKNELKLLLLGPGESGKSTFIKQMRIIHG
